Laboratory results: patent US5665701

Columns and labels:
[1] = target: FcγRII receptor (CD32) on human platelets (human) (UniProt P12318)
[2] = target: FcγRII receptor (CD32) on human platelets (human) (UniProt P12318); remark: listed apart in the source

inhibition of M.Ab.F11-induced ^14 C-serotonin release [1]: 1 µg/mL
concentration that doubled the latency of M.Ab.F11-induced aggregation [2]: 150 ng/mL
Substance: CD32 antibody IV.3 (M.Ab.IV.3)
